Reference: patent publication US20120230939A1 (BOARD OF TRUSTEES OF THE UNIVERSITY OF ILLINOIS, published 2012)

How the values were obtained:
HLA-A0201 [1] = molecular target: T1, HLA-A0201 (human); assay: cell-based or functional assay
T1 construct: whole, on cells; also called HLA-A201; HLA-A2

HLA-A0201 [2] = molecular target: T1, HLA-A0201; assay: T2 binding assay: stabilisation of HLA-A2 on T2 cells, flow cytometry
Text: HLA-A2 expression was visualized by direct staining with FITC conjugated MA2.1 antibody or an isotype control (BD Biosciences, San Diego, Calif.) followed by analysis on a FC500 flow cytometer (Beckman Coulter, Miami, Fla.).

HLA-A0201 [3] = molecular target: T1, HLA-A0201; assay: T2 binding assay: HLA-A2 expression on T2 cells, flow cytometry
Experimental: Briefly, T2 cells (5×10⁵/well) were pulsed with PSA-peptide or DMSO at the designated concentration and cultured in 24-well plates overnight (18 hours) at 37° C. in 5% CO₂ atmosphere.

Row | Molecule | binding result (HLA-A0201 [2]) | other results
1 | anti-HLA-A2 monoclonal antibody (BB7.2) |  | fold decrease in cytolytic activity of CD8+ CTL induced with TEM8 298-306 against HepG2 targets (12-hour chromium release assay) (HLA-A0201 [1]): 2 fold
2 | ALQGIIHSI (Synthetic peptide, >95% purity) [TEM8 207-215 peptide] | binds | 
3 | CALPERPSLYTKVVHYRKWIK (Synthetic peptide, >95% purity, bought from Research Genetics Inc; also called 21-mer PSA 210-230 peptide) [PSA 210-230 peptide] |  | binding result (HLA-A0201 [3]): binds

Further lines, with some results ahead:

Row | binding result (HLA-A0201 [2]) | Molecule | other results
4 | no binding (tested: 1 to 80 ug/ml) | TLNEKPFSV (Synthetic peptide, >95% purity) [TEM8 266-274 peptide] | 
5 | binds | SMNDGLSFI (Synthetic peptide, >95% purity) [TEM8 298-306 peptide] | 
